# Where a chain is given by its changes, count along the chain named.
# B1: 8K13-hz24 (antibody, human IgG1, V domains shown)
# VH: QVQLVQSGAEVKKPGSSVKVSCKASGYAFSNYWMNWVRQAPGQGLEWMGQIYPGSGDTKYSGKFQSRVTITADKSTNTAYMELSSLRSEDTAVYYCARFYYGNVMDYWGQGTLVTVSS
# VL: DIVLTQSPDSLAVSLGERATINCKSSQTLLSGGNQKNYLTWYQQKPGQPPKLLIYWASTRESGVPDRFSGSGSGTDFTLTISSLQAEDLAVYYCQQGYSYPLTFGQGTKLEIK
# notes: Humanized; also called 8K13-hz24 IgG; 8K13-24 IgG
# B2: 16K15-hz22 (antibody, human IgG1, V domains shown)
# VH: EVQLVESGGGLVQPGGSLRLSCAGSGITLSTYAMSWVRQAPGKGLEWVSSIISGGITYYLDSVKGRFTISRDNAKNTLYLQMSSLRAEDTAVYYCARKYHGNALDYWGQGTLVTVSS
# VL: B1 VL with L4M, T28S, G32S, K36R, L52K, Q96N, G97N, S99F
# notes: Humanized; also called 16K15-hz22 IgG; 16K15-22 IgG
# B3: 16K15-hz11 (antibody, human IgG1, V domains shown)
# VH: B2 VH with T77S, S83N
# VL: DIVMTQSPDSLAVSLGERATINCKSSQSLLNSGNQRNYLTWYQQKPGQPPKKLIYWASTRESGVPDRFSGSGSGTDFTLTISSLQAEDLAVYYCQNNYFYPLTFGQGTKLEIKR
# notes: Only positions of reverse mutations are printed; copies: 2 + 2
# B4: 16K15-hz00 (antibody, human IgG1, V domains shown)
# VH: B2 VH with G24A, T77S, S83N
# VL: B1 VL with L4M, T28S, S31N, G32S, K36R, L89V, Q96N, G97N, S99F
# notes: Humanized (direct CDR graft)
# B5: 16K15-xiIgG (antibody, V domains shown)
# VH: EVMLVESGGGLVRPGGSLKLSCAGSGITLSTYAMSWVRQTPERRLEWVASIISGGITYYLDSVKGRFTISRDNARNILYLQMSSLRSEDTAIYYCARKYHGNALDYWGQGTSVTVSL
# VL: DIVMTQSPSSLPVTAGETVTMRCKSSQSLLNSGNQRNYLTWYQRKPGQPPKKLIYWASTRESGVPDRFTGSGSGTDFTLTISGVQAEDLAVYYCQNNYFYPLTFGAGTKLELKR
# notes: Murine variable regions on human IgG1 / kappa constant regions; also called 16K15 chimeric antibody
# B6: 8K13 (8K13-hz24) scfv, as CAR on T cells (scFv, not shown: small tags and cut ends)
# scFv: QVQLVQSGAEVKKPGSSVKVSCKASGYAFSNYWMNWVRQAPGQGLEWMGQIYPGSGDTKYSGKFQSRVTITADKSTNTAYMELSSLRSEDTAVYYCARFYYGNVMDYWGQGTLVTVSSGSTSGGGSGGGSGGGGSSDIVLTQSPDSLAVSLGERATINCKSSQTLLSGGNQKNYLTWYQQKPGQPPKLLIYWASTRESGVPDRFSGSGSGTDFTLTISSLQAEDLAVYYCQQGYSYPLTFGQGTKLEIK
# B7: 52E22 (52E22-hz12) scfv, as CAR on T cells (scFv, not shown: small tags and cut ends)
# scFv: QIQLVQSGSELKKPGASVKVSCKASGYTLTNYGMNWVRQAPGQGLEWMGWIRPNTGEPTYAEDFKGRFVFSLDTSVATAYLQITSLKAEDTAVYYCARLYRGNTLDNWGQGTLVTVSSGSTSGGGSGGGSGGGGSSDIVMTQSPDSLAVSLGERATINCKSSQNLLSSGNQRNYLTWYQQKPGQPPKLLIYWASTRESGVPDRFSGSGSGTDFTLTISSLQAEDLAVYYCQQGYSFPFTFGQGTKLEIK
# B8: 16k15 (16K15-hz22) scfv, as CAR on T cells (scFv, not shown: small tags and cut ends)
# scFv: EVQLVESGGGLVQPGGSLRLSCAGSGITLSTYAMSWVRQAPGKGLEWVSSIISGGITYYLDSVKGRFTISRDNAKNTLYLQMSSLRAEDTAVYYCARKYHGNALDYWGQGTLVTVSSGSTSGGGSGGGSGGGGSSDIVMTQSPDSLAVSLGERATINCKSSQSLLSSGNQRNYLTWYQQKPGQPPKKLIYWASTRESGVPDRFSGSGSGTDFTLTISSLQAEDLAVYYCQNNYFYPLTFGQGTKLEIK
# Molecular target: T1, human CLDN18.2 expressed on cell surfaces (human, UniProt P56856-2 1-261)
# Test: cell-based or functional assay
"CDC EC50, BxPC3 cells stably expressing human CLDN18.2 (CCK-8) [nM]","CDC EC50, CHOK1 cells stably expressing human CLDN18.2 (CCK-8) [nM]","CDC EC50, NCI-N87 cells stably expressing human CLDN18.2 (CCK-8) [nM]",Binder
28.5,21.3,57.7,B1
12.2,5.2,17.4,B2

# Molecular target: T2, antigen human CLDN18.2, His-tagged (human, UniProt P56856-2 1-261, limits assumed)
# T2 construct: Recombinant antigen used in the Fortebio assay (His-tagged, captured on NTA probe); also called His-tagged antigen; not shown: His tag
# Test: BLI (Fortebio), His-tagged antigen on NTA probe; ratio to 8K13-xiIgG
# Experimental: (§1) The binding kinetic parameters of the chimeric antibodies and the humanized antibodies thereof to the antigen human CLDN18.2 were analyzed by a Fortebio (BLITZ pro1.1.0.28) instrument. Before performing the assay, an NTA bioprobe was soaked in PBS for 10 min, and the probe was then placed in PBS containing 100 nM antigen for 300 s to capture the His-tagged antigen. The probe was further subjected to a binding reaction with 100 nM antibody for a binding time of 400 s, and the probe was then transferred to PBS and subjected to a dissociation reaction for 600 s. When the assay was finished, data from which the response value of a blank control had been deducted were fitted to a 1:1 Langmuir binding model using software, and then the kinetic constants for antigen-antibody binding were calculated.
row,Koff/Koff(Xi-IgG),Binder
1,3.5,B1

# Molecular target: T2, antigen human CLDN18.2, His-tagged
# Test: BLI (Fortebio), His-tagged antigen on NTA probe; ratio to 16K15-xiIgG
# Experimental: as §1
row,Koff/Koff(Xi-IgG),Binder
1,0.65,B3
2,0.14,B4
3,1.86,B2
4,1,B5

# Molecular target: T1, human CLDN18.2 expressed on cell …
# Test: cell-based or functional assay
# Remark: another data set of the same source
"ADCC reporter EC50 (Jurkat NFAT-luciferase effector cells), BxPC3 target cells [nM]","ADCC reporter EC50 (Jurkat NFAT-luciferase effector cells), CHOK1 target cells [nM]","ADCC reporter EC50 (Jurkat NFAT-luciferase effector cells), NCI-N87 target cells [nM]",Binder
0.304,0.589,0.15,B1
0.176,0.712,0.0677,B2

# Molecular target: T2, antigen human CLDN18.2, His-tagged
# Test: BLI (Fortebio), His-tagged antigen on NTA probe, 100 nM antibody, 1:1 fit
# Experimental: as §1
Kd [nM],Response,koff [s⁻¹],kon [M⁻¹ s⁻¹],Binder
0.535,0.17,0.0001,188000,B3
1.51,0.133,0.000399,264000,B1
0.0895,0.176,2.15e-05,240000,B4
1.1,0.266,0.000286,259000,B2
0.557,0.261,0.000154,276000,B5

# Molecular target: T2, antigen human CLDN18.2, His-tagged
# Test: SPR (BIAcore), antibody captured by anti-human Fc, antigen as analyte
# Experimental: Referring to the instructions provided in the Human Antibody Capture Kit (cat No. BR-1008-39, Lot 10261753) from GE Healthcare, the analytical channel and the control sample channel on a CM5 sensor chip were first saturated and coupled with the maximum amount of anti-human Fc antibody, then buffers containing anti-human CLDN18.2 chimeric antibodies, humanized antibodies or a control antibody IMAB362 at 7.5 μg/ml were allowed to flow through the analytical channel and uniformly distribute. Finally, antigen samples diluted in gradient (the initial concentration was 20 nM and diluted by 1:3 to get 8 concentrations, and the concentration 0.741 nM was set to be repeated) were allowed to flow through both the analytical channel and the sample channel, and the photoreactions upon the binding of antibody to antigen were measured. Subsequently, the association constant Kon and dissociation constant Koff and affinity constant KD of each antibody were finally obtained by instrument software fitting analysis.
Kd [nM],koff [s⁻¹],kon [M⁻¹ s⁻¹],Binder
28.5,0.00202,70900,B1
9.85,0.000563,57100,B2
13.5,0.00144,107000,B5

# Molecular target: human CLDN18.2 expressed on cell surfaces (human) (UniProt P56856)
# Test: cell-based or functional assay
row,Human IFNγ detected in the supernatants of the culture systems (CAR-T cells with CHO-claduin18.2),Binder
1,75500,B6
2,78900,B7
3,79200,B8

# Molecular target: human CLDN18.1 expressed on cell surfaces (human) (UniProt P56856)
# Test: cell-based or functional assay
row,Human IFNγ detected in the supernatants of the culture systems (CAR-T cells with CHO-claduin18.1),Binder
1,4670,B6
2,4540,B7
3,60300,B8

# From patent US20230250168A1 (MABWELL SHANGHAI BIOSCIENCE, published 2023)
